Here are results for 13 substances from patent US20140370021A1.

Experiment [1] deals with F158 FcγRIIIa as used in SPR (UniProt P08637). Briefly: SPR.
The next experiment addresses His-tagged V158 FcγRIIIa (UniProt P08637). Briefly: SPR, receptor immobilized. For orientation: Surface plasmon resonance follows binding to a sensor surface in real time, without labels.
Experiment [2] addresses extracellular region of human V158 FcγRIIIa fused with glutathione S-transferase (GST) (human) (UniProt P08637). Briefly: AlphaScreen competition.
The target of experiment [3] is FcγRIIIa on human PBMCs, heterozygous V158/F158 (human) (UniProt P08637). Briefly: cell-based or functional assay.
The target in experiment [4] is extracellular region of human R131 FcγRIIa, GST-tagged (human) (UniProt P12318). Briefly: AlphaScreen competition: the antibody displaces biotinylated WT antibody (donor beads) from GST-tagged human R131 FcγRIIa (acceptor beads). (Alpha assays give light when donor and acceptor beads are brought close together.)
Experiment [5] concerns the target extracellular region of human V158 FcγRIIIa fused with glutathione S-transferase (GST) (human) (UniProt P08637). The experiment in a line: AlphaScreen competition as in Example 2 (biotinylated WT antibody on donor beads, GST-tagged human V158 FcγRIIIa on acceptor beads); Fc variants in the context of trastuzumab.
Another experiment addresses bacterial protein A (UniProt P38507). The experiment in a line: AlphaScreen competition: the antibody displaces biotinylated WT alemtuzumab (donor beads) from protein A coupled directly to acceptor beads.

In general, Kd refers to the constant that tells how readily two partners part at equilibrium. Regarding alemtuzumab S298A (antibody), the Kd in experiment [1] amounted to 285 nM; in the experiment with His-tagged V158 FcγRIIIa, 52 nM.
Consider “alemtuzumab Fc variant 192 (V264E/N297D/I332E by Table 60; printed V264I/N297D/I332E in Table 61) (antibody)”, for which the FcγRIIIa Fold in experiment [2] amounted to 0.05 fold vs WT.
Regarding alemtuzumab V264I/I332E (antibody), the Kd in experiment [1] turned out to be 52 nM; with His-tagged V158 FcγRIIIa, 17 nM. This substance also displayed an ADCC EC50 in experiment [3] of 4 ng/mL. For the same substance, the ADCC log(EC50) in experiment [3] was 0.6 log(ng/ml).
Turning to “WT alemtuzumab (Campath), IgG1, expressed in 293T cells (antibody)”, the results for the equilibrium dissociation constant (Kd) (in experiment [1]; in the experiment with His-tagged V158 FcγRIIIa) were 730 nM and 68 nM, respectively.
S239D/A330L/I332E (antibody) showed an IC50 (read off the curve) in experiment [4] of 7 nM.
Take “alemtuzumab S298A/E333A/K334A (antibody)”: the Kd worked out at 156 nM in experiment [1] and 39 nM with His-tagged V158 FcγRIIIa.
For S239N/I332E (antibody), in experiment [5], the IC50 (read off the curve) is 0.7 nM.
For S239D/S298A/I332E (antibody), the IC50 (read off the curve) in experiment [4] was 4 nM.
Turning to S239N/A330Y/I332E (antibody), the IC50 (read off the curve) in experiment [4] was 6 nM.
Substance S239D/A330Y/I332E (antibody) returned an IC50 (read off the curve) in experiment [4] of 3 nM.
Take alemtuzumab V264I (antibody): the Kd was determined as 550 nM in experiment [1] and 64 nM with His-tagged V158 FcγRIIIa. In addition, the IC50 (read off the curve) in the experiment with bacterial protein A was 1e-09 2M.
As for alemtuzumab S239D/I332E (antibody), in experiment [3], the ADCC EC50 worked out at 3 ng/mL and the ADCC log(EC50) was 0.49 log(ng/ml). Also, in experiment [4], the IC50 (read off the curve) was 3 nM.
As for alemtuzumab I332E (antibody), the Kd in experiment [1] was 72 nM; in the experiment with His-tagged V158 FcγRIIIa, 31 nM. Also, the IC50 (read off the curve) in the experiment with bacterial protein A was 1e-09 2M.
